These results are taken from article PMC11574045, “A cofactor-induced repressive type of transcription factor condensation can be induced by synthetic peptides to suppress tumorigenesis” (The EMBO Journal, 2024).

In the assay the test system is HEK293FT cells transfected with TF library. Put plainly: Screening of TF condensates based on fluorescent puncta. The format is cell-based. The settings on record: Figure 1B numerical data; TF library screen, one value per transcriptional factor. The gist of the method: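 Cells were seeded onto plasmid/PEI-loaded wells (plasmid 1.6 μg/ml final) and grown 60 h. Medium with or without glucose followed for 12 h. Fixed, permeabilized cells were stained against Flag or GAL4 tags, and condensate puncta were quantified from 50 random fields per well.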

B1: FOXI2 (protein, UniProt Q6ZQN5 1-318, looked up)
Forkhead box protein I2: MATYCDDLGPSSAPPGQAQATAHPPGYEPGDLGAVGGGPLLWVNAPALSPKSYASGPGPAPPYAAPSYGAPGPLLGAPGGLAGADLAWLSLSGQQELLRLVRPPYSYSALIAMAIQSAPLRKLTLSQIYQYVAGNFPFYKRSKAGWQNSIRHNLSLNDCFKKVPRDEDDPGKGNYWTLDPNCEKMFDNGNFRRKRKRRAEASAAVRSGARSVGGAEAPALEPPSAACLDLQASPSPSAPEAATCFSGFASAMSALAGGLGTFPGGLAGDFSFGRRPPTVATHAPQTLNPSPGFAPGHQTAAAGFRLSHLLYSREGTEV
Take B1: the “Z score of condensed fraction” value is -0.5391.

B2: FOXO3 (protein, UniProt O43524 1-673, looked up)
Forkhead box protein O3: MAEAPASPAPLSPLEVELDPEFEPQSRPRSCTWPLQRPELQASPAKPSGETAADSMIPEEEDDEDDEDGGGRAGSAMAIGGGGGSGTLGSGLLLEDSARVLAPGGQDPGSGPATAAGGLSGGTQALLQPQQPLPPPQPGAAGGSGQPRKCSSRRNAWGNLSYADLITRAIESSPDKRLTLSQIYEWMVRCVPYFKDKGDSNSSAGWKNSIRHNLSLHSRFMRVQNEGTGKSSWWIINPDGGKSGKAPRRRAVSMDNSNKYTKSRGRAAKKKAALQTAPESADDSPSQLSKWPGSPTSRSSDELDAWTDFRSRTNSNASTVSGRLSPIMASTELDEVQDDDAPLSPMLYSSSASLSPSVSKPCTVELPRLTDMAGTMNLNDGLTENLMDDLLDNITLPPSQPSPTGGLMQRSSSFPYTTKGSGLGSPTSSFNSTVFGPSSLNSLRQSPMQTIQENKPATFSSMSHYGNQTLQDLLTSDSLSHSDVMMTQSDPLMSQASTAVSAQNSRRNVMLRNDPMMSFAAQPNQGSLVNQNLLHHQHQTQGALGGSRALSNSVSNMGLSESSSLGSAKHQQQSPVSQSMQTLSDSLSGSSLYSTSANLPVMGHEKFPSDLDLDMFNGSLECDMESIIRSELMDADGLDFNFDSLISTQNVVGLNVGNFTGAKQASSQSWVPG
In the case of B2, the “Z score of condensed fraction” value was -0.5303.

B3: GABPB1 (protein, UniProt Q06547 2-395, looked up)
GA-binding protein subunit …: SLVDLGKKLLEAARAGQDDEVRILMANGAPFTTDWLGTSPLHLAAQYGHYSTTEVLLRAGVSRDARTKVDRTPLHMAASEGHASIVEVLLKHGADVNAKDMLKMTALHWATEHNHQEVVELLIKYGADVHTQSKFCKTAFDISIDNGNEDLAEILQIAMQNQINTNPESPDTVTIHAATPQFIIGPGGVVNLTGLVSSENSSKATDETGVSAVQFGNSSTSVLATLAALAEASAPLSNSSETPVVATEEVVTAESVDGAIQQVVSSGGQQVITIVTDGIQLGNLHSIPTSGIGQPIIVTMPDGQQVLTVPATDIAEETVISEEPPAKRQCIEIIENRVESAEIEEREALQKQLDEANREAQKYRQQLLKKEQEAEAYRQKLEAMTRLQTNKEAV
Turning to B3, the “Z score of condensed fraction” value was -0.05729.

B4: FOXS1 (protein, UniProt O43638 1-330, looked up)
Forkhead box protein S1: MQQQPLPGPGAPTTEPTKPPYSYIALIAMAIQSSPGQRATLSGIYRYIMGRFAFYRHNRPGWQNSIRHNLSLNECFVKVPRDDRKPGKGSYWTLDPDCHDMFEHGSFLRRRRRFTRQTGAEGTRGPAKARRGPLRATSQDPGVPNATTGRQCSFPPELPDPKGLSFGGLVGAMPASMCPATTDGRPRPPMEPKEISTPKPACPGELPVATSSSSCPAFGFPAGFSEAESFNKAPTPVLSPESGIGSSYQCRLQALNFCMGADPGLEHLLASAAPSPAPPTPPGSLRAPLPLPTDHKEPWVAGGFPVQGGSGYPLGLTPCLYRTPGMFFFE
Take B4: the “Z score of condensed fraction” value was found to be 2.025.

B5: FOXP4 (protein, UniProt Q8IVH2 1-680, looked up)
Forkhead box protein P4: MMVESASETIRSAPSGQNGVGSLSGQADGSSGGATGTTASGTGREVTTGADSNGEMSPAELLHFQQQQALQVARQFLLQQASGLSSPGNNDSKQSASAVQVPVSVAMMSPQMLTPQQMQQILSPPQLQALLQQQQALMLQQLQEYYKKQQEQLHLQLLTQQQAGKPQPKEALGNKQLAFQQQLLQMQQLQQQHLLNLQRQGLVSLQPNQASGPLQTLPQAAVCPTDLPQLWKGEGAPGQPAEDSVKQEGLDLTGTAATATSFAAPPKVSPPLSHHTLPNGQPTVLTSRRDSSSHEETPGSHPLYGHGECKWPGCETLCEDLGQFIKHLNTEHALDDRSTAQCRVQMQVVQQLEIQLAKESERLQAMMAHLHMRPSEPKPFSQPLNPVPGSSSFSKVTVSAADSFPDGLVHPPTSAAAPVTPLRPPGLGSASLHGGGPARRRSSDKFCSPISSELAQNHEFYKNADVRPPFTYASLIRQAILETPDRQLTLNEIYNWFTRMFAYFRRNTATWKNAVRHNLSLHKCFVRVENVKGAVWTVDEREYQKRRPPKMTGSPTLVKNMISGLSYGALNASYQAALAESSFPLLNSPGMLNPGSASSLLPLSHDDVGAPVEPLPSNGSSSPPRLSPPQYSHQVQVKEEPAEAEEDRQPGPPLGAPNPSASGPPEDRDLEEELPGEELS
Take B5: the “Z score of condensed fraction” value worked out at 0.7085.

B6: FOXN2 (protein, UniProt P32314 1-431, looked up)
Forkhead box protein N2: MGPVIGMTPDKRAETPGAEKIAGLSQIYKMGSLPEAVDAARPKATLVDSESADDELTNLNWLHESTNLLTNFSLGSEGLPIVSPLYDIEGDDVPSFGPACYQNPEKKSATSKPPYSFSLLIYMAIEHSPNKCLPVKEIYSWILDHFPYFATAPTGWKNSVRHNLSLNKCFQKVERSHGKVNGKGSLWCVDPEYKPNLIQALKKQPFSSASSQNGSLSPHYLSSVIKQNQVRNLKESDIDAAAAMMLLNTSIEQGILECEKPLPLKTALQKKRSYGNAFHHPSAVRLQESDSLATSIDPKEDHNYSASSMAAQRCASRSSVSSLSSVDEVYEFIPKNSHVGSDGSEGFHSEEDTDVDYEDDPLGDSGYASQPCAKISEKGQSGKKMRKQTCQEIDEELKEAAGSLLHLAGIRTCLGSLISTAKTQNQKQRKK
Take B6: the “Z score of condensed fraction” value is listed as -0.402.

B7: FOXR1 (protein, UniProt Q6PIV2 1-292, looked up)
Forkhead box protein R1: MGNELFLAFTTSHLPLAEQKLARYKLRIVKPPKLPLEKKPNPDKDGPDYEPNLWMWVNPNIVYPPGKLEVSGRRKREDLTSTLPSSQPPQKEEDASCSEAAGVESLSQSSSKRSPPRKRFAFSPSTWELTEEEEAEDQEDSSSMALPSPHKRAPLQSRRLRQASSQAGRLWSRPPLNYFHLIALALRNSSPCGLNVQQIYSFTRKHFPFFRTAPEGWKNTVRHNLCFRDSFEKVPVSMQGGASTRPRSCLWKLTEEGHRRFAEEARALASTRLESIQQCMSQPDVMPFLFDL
As for B7, the “Z score of condensed fraction” value is given as -0.3141.

B8: FOXM1 (protein, UniProt O08696 1-760, looked up)
Forkhead box protein M1: MRTSPRRPLILKRRRLPLPVQNAPSETSEEEAKRSPAQPEPAPAQASQEVAESSSCKFPAGIKIINHPTTPNTQVVAIPSNADIQSIITALTAKGKESGTSGPNRFILISSGGPSSHPSQPQAHSSRDSKRAEVITETLGPKPAAKGVPVPKPPGAPPRQRQESYAGGEAAGCTLDNSLTNIQWLGKMSSDGLGPCSVKQELEEKENCHLEQNRVKVEEPSGVSTSWQDSVSERPPYSYMAMIQFAINSTERKRMTLKDIYTWIEDHFPYFKHIAKPGWKNSIRHNLSLHDMFVRETSANGKVSFWTIHPSANRHLTLDQVFKPLEPGSPQSPEHLESQQKRPNPELHRNVTIKTEIPLGARRKMKPLLPRVSSYLEPIQFPVNQSLVLQPSVKVPFRLAASLMSSELARHSKRVRIAPKVLLSSEGIAPLPATEPPKEEKPLLGGEGLLPLLPIQSIKEEEMQPEEDIAHLERPIKVESPPLEEWPSPCASLKEELSNSWEDSSCSPTPKPKKSYCGLKSPTRCVSEMLVTKRREKREVSRSRRKQHLQPPCLDEPDLFFPEDSSTFRPAVELLAESSEPAPHLSCPQEEGGPFKTPIKETLPVSSTPSKSVLSRDPESWRLTPPAKVGGLDFSPVRTPQGAFGLLPDSLGLMELNTTPLKSGPLFDSPRELLNSEPFDLASDPFGSPPPPHVEGPKPGSPELQIPSLSANRSLTEGLVLDTMNDSLSKILLDISFPGLEEDPLGPDNINWSQFIPELR
Take B8: the “Z score of condensed fraction” value stood at 2.036.

B9: FOXI1 (protein, UniProt Q12951 1-378, looked up)
Forkhead box protein I1: MSSFDLPAPSPPRCSPQFPSIGQEPPEMNLYYENFFHPQGVPSPQRPSFEGGGEYGATPNPYLWFNGPTMTPPPYLPGPNASPFLPQAYGVQRPLLPSVSGLGGSDLGWLPIPSQEELMKLVRPPYSYSALIAMAIHGAPDKRLTLSQIYQYVADNFPFYNKSKAGWQNSIRHNLSLNDCFKKVPRDEDDPGKGNYWTLDPNCEKMFDNGNFRRKRKRKSDVSSSTASLALEKTESSLPVDSPKTTEPQDILDGASPGGTTSSPEKRPSPPPSGAPCLNSFLSSMTAYVSGGSPTSHPLVTPGLSPEPSDKTGQNSLTFNSFSPLTNLSNHSGGGDWANPMPTNMLSYGGSVLSQFSPHFYNSVNTSGVLYPREGTEV
In the case of B9, the “Z score of condensed fraction” value was -1.1314.

B10: AIOLOS (protein, UniProt Q9UKT9 1-509, looked up)
Zinc finger protein Aiolos: MEDIQTNAELKSTQEQSVPAESAAVLNDYSLTKSHEMENVDSGEGPANEDEDIGDDSMKVKDEYSERDENVLKSEPMGNAEEPEIPYSYSREYNEYENIKLERHVVSFDSSRPTSGKMNCDVCGLSCISFNVLMVHKRSHTGERPFQCNQCGASFTQKGNLLRHIKLHTGEKPFKCHLCNYACQRRDALTGHLRTHSVEKPYKCEFCGRSYKQRSSLEEHKERCRTFLQSTDPGDTASAEARHIKAEMGSERALVLDRLASNVAKRKSSMPQKFIGEKRHCFDVNYNSSYMYEKESELIQTRMMDQAINNAISYLGAEALRPLVQTPPAPTSEMVPVISSMYPIALTRAEMSNGAPQELEKKSIHLPEKSVPSERGLSPNNSGHDSTDTDSNHEERQNHIYQQNHMVLSRARNGMPLLKEVPRSYELLKPPPICPRDSVKVINKEGEVMDVYRCDHCRVLFLDYVMFTIHMGCHGFRDPFECNMCGYRSHDRYEFSSHIARGEHRALLK
Regarding B10, the “Z score of condensed fraction” value turned out to be 0.5203.

B11: FOXR2 (protein, UniProt Q6PJQ5 1-311, looked up)
Forkhead box protein R2: MDLKLKDCEFWYSLHGQVPGLLDWDMRNELFLPCTTDQCSLAEQILAKYRVGVMKPPEMPQKRRPSPDGDGPPCEPNLWMWVDPNILCPLGSQEAPKPSGKEDLTNISPFPQPPQKDEGSNCSEDKVVESLPSSSSEQSPLQKQGIHSPSDFELTEEEAEEPDDNSLQSPEMKCYQSQKLWQINNQEKSWQRPPLNCSHLIALALRNNPHCGLSVQEIYNFTRQHFPFFWTAPDGWKSTIHYNLCFLDSFEKVPDSLKDEDNARPRSCLWKLTKEGHRRFWEETRVLAFAQRERIQECMSQPELLTSLFDL
For the molecule B11, the “Z score of condensed fraction” value is -0.6086.
